Read-outs that look alike come from different tables or passages of the source.
Tests used:
[1] = target: the molecule itself; experiment: SEC; gel filtration on Superdex 200 10/300GL in 50 mM Tris-HCl, pH 7.6, 200 mM KCl (also Sephacryl S-400HR in 25 mM sodium phosphate, pH 7.6, 150 mM NaCl); elution compared with reference proteins; dimer formation judged from apparent size
[2] = target: the molecule itself; experiment: as above; remark: listed apart in the source

Protein | binding result [1] | binding result [2]
full-length S. pombe α-actinin (natural protein, Schizosaccharomyces pombe, UniProt O13728 1-621, looked up, also called full length α-actinin; pTEV-SP; source: E. coli BL21(DE3), purified (nickel chelating column, TEV cleavage, ion exchange when necessary); not shown: 10xHis, N-terminal, cleaved) MQANQWQSVQNRTFTKWFNTKLSSRDLPSVFDLRKDLSDGILLIQLLEIIGDENLGRYNRNPRMRVHRLENVNKALEYIKSKGMPLTNIGPADIVDGNLKLILGLIWTLILRFTIADINEEGLTAKEGLLLWCQRKTANYHPEVDVQDFTRSWTNGLAFCALIHQHRPDLLDYNKLDKKNHRANMQLAFDIAQKSIGIPRLIEVEDVCDVDRPDERSIMTYVAEYFHAFSTLDKVETAARRVERFTEVLMSTHDMKIDYESRMKRLLGSIARMQEYWHTVQFENNYTDVKSHSNNFAKFKATEKREWVKEKIDLESLLGTIQTNLKTYQLRKYEPPAGLKIVDLERQWKDFLSEEANQSKLINTHMREIKESMRIAFADRANSFSKMLSTISNEITNLQGDWRDQLDHVEFLQEHLGPLEVELASVKVLYDNCFQAGIEENDYTMFSYEDLEHEFGITANIIANKIKYLENELLEREKRTLSKQELDGITKVFRHFEKKKSNMLNEVEFYAALASLGLVYDTEEGTALFHRAANSEEGVTYERFTEIVMEELEDRDSARQVLYAFCDVADGKSYVTSDDLLRSQVRPNIVKFLECNMNKHSEGLDYLTWIKQLLAEDKEIV | binds | –
rod domain (ROD) of S. pombe α-actinin (domain or fragment, Schizosaccharomyces pombe, UniProt O13728 228-483, looked up, alpha-actinin of Schizosaccharomyces pombe, rod domain with two putative spectrin repeats, nucleotides 682-1449, residues 228-483; 258 residues in all; also called pTEV-SP-ROD; source: E. coli BL21(DE3), purified (nickel chelating column, TEV cleavage, ion exchange when necessary); not shown: 10xHis, N-terminal, cleaved) AFSTLDKVETAARRVERFTEVLMSTHDMKIDYESRMKRLLGSIARMQEYWHTVQFENNYTDVKSHSNNFAKFKATEKREWVKEKIDLESLLGTIQTNLKTYQLRKYEPPAGLKIVDLERQWKDFLSEEANQSKLINTHMREIKESMRIAFADRANSFSKMLSTISNEITNLQGDWRDQLDHVEFLQEHLGPLEVELASVKVLYDNCFQAGIEENDYTMFSYEDLEHEFGITANIIANKIKYLENELLEREKRTLSK | – | binds
ABD-ROD of S. pombe α-actinin (domain or fragment, Schizosaccharomyces pombe, UniProt O13728 1-483, looked up, 485 residues in all; also called pTEV-SP-ABD-ROD; source: E. coli BL21(DE3), purified (nickel chelating column, TEV cleavage, ion exchange when necessary); not shown: 10xHis, N-terminal, cleaved) MQANQWQSVQNRTFTKWFNTKLSSRDLPSVFDLRKDLSDGILLIQLLEIIGDENLGRYNRNPRMRVHRLENVNKALEYIKSKGMPLTNIGPADIVDGNLKLILGLIWTLILRFTIADINEEGLTAKEGLLLWCQRKTANYHPEVDVQDFTRSWTNGLAFCALIHQHRPDLLDYNKLDKKNHRANMQLAFDIAQKSIGIPRLIEVEDVCDVDRPDERSIMTYVAEYFHAFSTLDKVETAARRVERFTEVLMSTHDMKIDYESRMKRLLGSIARMQEYWHTVQFENNYTDVKSHSNNFAKFKATEKREWVKEKIDLESLLGTIQTNLKTYQLRKYEPPAGLKIVDLERQWKDFLSEEANQSKLINTHMREIKESMRIAFADRANSFSKMLSTISNEITNLQGDWRDQLDHVEFLQEHLGPLEVELASVKVLYDNCFQAGIEENDYTMFSYEDLEHEFGITANIIANKIKYLENELLEREKRTLSK | – | binds
ROD-EF of S. pombe α-actinin (domain or fragment, Schizosaccharomyces pombe, UniProt O13728 228-621, looked up, 396 residues in all; also called pTEV-SP-ROD-EF; source: E. coli BL21(DE3), purified (nickel chelating column, TEV cleavage, ion exchange when necessary); not shown: 10xHis, N-terminal, cleaved) AFSTLDKVETAARRVERFTEVLMSTHDMKIDYESRMKRLLGSIARMQEYWHTVQFENNYTDVKSHSNNFAKFKATEKREWVKEKIDLESLLGTIQTNLKTYQLRKYEPPAGLKIVDLERQWKDFLSEEANQSKLINTHMREIKESMRIAFADRANSFSKMLSTISNEITNLQGDWRDQLDHVEFLQEHLGPLEVELASVKVLYDNCFQAGIEENDYTMFSYEDLEHEFGITANIIANKIKYLENELLEREKRTLSKQELDGITKVFRHFEKKKSNMLNEVEFYAALASLGLVYDTEEGTALFHRAANSEEGVTYERFTEIVMEELEDRDSARQVLYAFCDVADGKSYVTSDDLLRSQVRPNIVKFLECNMNKHSEGLDYLTWIKQLLAEDKEIV | – | binds

Reference: paper PMC4824898, “Characterisation of Schizosaccharomyces pombe α-actinin” (PeerJ, 2016)
